The text below walks through data of paper PMC11414716, “Structural insights into polyamine spermidine uptake by the ABC transporter PotD-PotABC” (Science Advances, 2024).

Data set [1] addresses T1, PotD (wild type), spermidine-binding protein (E. coli K12, UniProt P0AFK9 24-348).
T1 construct: expressed from the entire potABCD operon; Hexahistidine tag is called noncleavable; also called PoD wild-type; source: E. coli C41, expressed from the potABCD operon with the tag on PotD; purified (Ni-NTA, Superose 6 SEC); in lysate for the co-purification attempt; not shown: His6, C-terminal, kept
T1 sequence (looked up): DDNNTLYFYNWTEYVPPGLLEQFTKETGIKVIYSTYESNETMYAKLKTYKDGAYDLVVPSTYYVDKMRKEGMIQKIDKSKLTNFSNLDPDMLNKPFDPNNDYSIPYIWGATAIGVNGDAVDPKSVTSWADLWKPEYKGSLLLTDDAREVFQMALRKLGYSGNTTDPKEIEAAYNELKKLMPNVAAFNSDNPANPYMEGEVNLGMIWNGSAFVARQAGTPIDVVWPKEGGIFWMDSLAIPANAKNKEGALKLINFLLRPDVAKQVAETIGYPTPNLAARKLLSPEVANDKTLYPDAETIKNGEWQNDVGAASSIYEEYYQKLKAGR
The experiment in a line: cryo-EM structure; PotD-PotABC E173Q complex formed with Spd, ATP and Mg2+, in LMNG; Spd-bound pretranslocation state (3.1 Å) and ATP-bound translocation intermediate state (3 Å; dataset 2 with 3 mM Fos-Choline-8). Particulars: both partners purified.

Data set [2] concerns the molecule itself. The data set can be described thus: cryo-EM structure; wild-type PotABC complex reconstituted into MSP1E3D1/asolectin nanodiscs, with ATP, Mg2+ and Spd; map at 3.5 Å.
Data set [3] concerns the molecule itself. The data set can be described thus: cryo-EM structure; PotD-PotABC E173Q complex formed with Spd, ATP and Mg2+, in LMNG; Spd-bound pretranslocation state (3.1 Å) and ATP-bound translocation intermediate state (3 Å; dataset 2 with 3 mM Fos-Choline-8).

B1: PotB (natural protein, E. coli K12, UniProt P0AFK4 1-275, looked up)
chain: MIVTIVGWLVLFVFLPNLMIIGTSFLTRDDASFVKMVFTLDNYTRLLDPLYFEVLLHSLNMALIATLACLVLGYPFAWFLAKLPHKVRPLLLFLLIVPFWTNSLIRIYGLKIFLSTKGYLNEFLLWLGVIDTPIRIMFTPSAVIIGLVYILLPFMVMPLYSSIEKLDKPLLEAARDLGASKLQTFIRIIIPLTMPGIIAGCLLVMLPAMGLFYVSDLMGGAKNLLIGNVIKVQFLNIRDWPFGAATSITLTIVMGLMLLVYWRASRLLNKKVELE
notes: PotB, transmembrane subunit, E. coli K12; the entire potABCD operon was cloned; Subunit of the PotABC complexes, written alone for the pairs within the solved complexes; source: E. coli C41, co-expressed and purified as part of the PotABC complex (Ni-NTA, SEC in LMNG; wild-type complex also in nanodiscs)
For the molecule B1, the binding result in data set [1] was “binds”.

B2: PotC (natural protein, E. coli K12, UniProt P0AFK6 1-264, looked up)
chain: MIGRLLRGGFMTAIYAYLYIPIIILIVNSFNSSRFGINWQGFTTKWYSLLMNNDSLLQAAQHSLTMAVFSATFATLIGSLTAVALYRYRFRGKPFVSGMLFVVMMSPDIVMAISLLVLFMLLGIQLGFWSLLFSHITFCLPFVVVTVYSRLKGFDVRMLEAAKDLGASEFTILRKIILPLAMPAVAAGWVLSFTLSMDDVVVSSFVTGPSYEILPLKIYSMVKVGVSPEVNALATILLVLSLVMVIASQLIARDKTKGNTGDVK
notes: PotC, transmembrane subunit, E. coli K12; the entire potABCD operon was cloned; Subunit of the PotABC complexes, written alone for the pairs within the solved complexes; That the tag sits on PotC is surmised; source: E. coli C41, co-expressed and purified as part of the PotABC complex (Ni-NTA, SEC in LMNG; wild-type complex also in nanodiscs); not shown: His6 (inferred on PotC: C-terminal tag of …)
Consider B2, for which, in data set [1], the binding result is on record as “binds”.

B3: PotA (wild type) (natural protein, E. coli K12, UniProt P69874 1-378, looked up)
chain: MGQSKKLNKQPSSLSPLVQLAGIRKCFDGKEVIPQLDLTINNGEFLTLLGPSGCGKTTVLRLIAGLETVDSGRIMLDNEDITHVPAENRYVNTVFQSYALFPHMTVFENVAFGLRMQKTPAAEITPRVMEALRMVQLETFAQRKPHQLSGGQQQRVAIARAVVNKPRLLLLDESLSALDYKLRKQMQNELKALQRKLGITFVFVTHDQEEALTMSDRIVVMRDGRIEQDGTPREIYEEPKNLFVAGFIGEINMFNATVIERLDEQRVRANVEGRECNIYVNFAVEPGQKLHVLLRPEDLRVEEINDDNHAEGLIGYVRERNYKGMTLESVVELENGKMVMVSEFFNEDDPDFDHSLDQKMAINWVESWEVVLADEEHK
notes: PotA, cytosolic ATPase subunit, E. coli K12; the entire potABCD operon was cloned; Subunit of the wild-type PotABC complex solved in nanodiscs
Regarding B3, the binding result in data set [2] is listed as “binds”.

B4: PotA E173Q (natural protein, E. coli K12, UniProt P69874 1-378, looked up)
chain: MGQSKKLNKQPSSLSPLVQLAGIRKCFDGKEVIPQLDLTINNGEFLTLLGPSGCGKTTVLRLIAGLETVDSGRIMLDNEDITHVPAENRYVNTVFQSYALFPHMTVFENVAFGLRMQKTPAAEITPRVMEALRMVQLETFAQRKPHQLSGGQQQRVAIARAVVNKPRLLLLDQSLSALDYKLRKQMQNELKALQRKLGITFVFVTHDQEEALTMSDRIVVMRDGRIEQDGTPREIYEEPKNLFVAGFIGEINMFNATVIERLDEQRVRANVEGRECNIYVNFAVEPGQKLHVLLRPEDLRVEEINDDNHAEGLIGYVRERNYKGMTLESVVELENGKMVMVSEFFNEDDPDFDHSLDQKMAINWVESWEVVLADEEHK
notes: PotA, cytosolic ATPase subunit (NBD and regulatory domain), E. coli K12; the entire potABCD operon was cloned; Subunit of m1, written alone for the pairs within the solved complexes; source: E. coli C41, co-expressed and purified as part of the PotABC E173Q complex (Ni-NTA, SEC in LMNG)
With B4, the stoichiometry N (in general, the number of molecules, sites or subunits per partner or assembly) in data set [3] is 2.
